According to PMC9807522 (Cancer Science, 2022):

Key:
[1] = target: VEGFR2 on VEGFR2 overexpressing 293FT cells (Homo sapiens (assumed), UniProt P35968); assay: cell-based or functional assay
[2] = target: recombinant rhesus macaque VEGFR2‐His protein (Macaca mulatta, UniProt F7E313); assay: ELISA
[3] = target: recombinant human VEGFR2 protein (Octet) (Homo sapiens, UniProt P35968); assay: BLI
Chain of recombinant human VEGFR2 protein (Octet) (P35968 20-1356): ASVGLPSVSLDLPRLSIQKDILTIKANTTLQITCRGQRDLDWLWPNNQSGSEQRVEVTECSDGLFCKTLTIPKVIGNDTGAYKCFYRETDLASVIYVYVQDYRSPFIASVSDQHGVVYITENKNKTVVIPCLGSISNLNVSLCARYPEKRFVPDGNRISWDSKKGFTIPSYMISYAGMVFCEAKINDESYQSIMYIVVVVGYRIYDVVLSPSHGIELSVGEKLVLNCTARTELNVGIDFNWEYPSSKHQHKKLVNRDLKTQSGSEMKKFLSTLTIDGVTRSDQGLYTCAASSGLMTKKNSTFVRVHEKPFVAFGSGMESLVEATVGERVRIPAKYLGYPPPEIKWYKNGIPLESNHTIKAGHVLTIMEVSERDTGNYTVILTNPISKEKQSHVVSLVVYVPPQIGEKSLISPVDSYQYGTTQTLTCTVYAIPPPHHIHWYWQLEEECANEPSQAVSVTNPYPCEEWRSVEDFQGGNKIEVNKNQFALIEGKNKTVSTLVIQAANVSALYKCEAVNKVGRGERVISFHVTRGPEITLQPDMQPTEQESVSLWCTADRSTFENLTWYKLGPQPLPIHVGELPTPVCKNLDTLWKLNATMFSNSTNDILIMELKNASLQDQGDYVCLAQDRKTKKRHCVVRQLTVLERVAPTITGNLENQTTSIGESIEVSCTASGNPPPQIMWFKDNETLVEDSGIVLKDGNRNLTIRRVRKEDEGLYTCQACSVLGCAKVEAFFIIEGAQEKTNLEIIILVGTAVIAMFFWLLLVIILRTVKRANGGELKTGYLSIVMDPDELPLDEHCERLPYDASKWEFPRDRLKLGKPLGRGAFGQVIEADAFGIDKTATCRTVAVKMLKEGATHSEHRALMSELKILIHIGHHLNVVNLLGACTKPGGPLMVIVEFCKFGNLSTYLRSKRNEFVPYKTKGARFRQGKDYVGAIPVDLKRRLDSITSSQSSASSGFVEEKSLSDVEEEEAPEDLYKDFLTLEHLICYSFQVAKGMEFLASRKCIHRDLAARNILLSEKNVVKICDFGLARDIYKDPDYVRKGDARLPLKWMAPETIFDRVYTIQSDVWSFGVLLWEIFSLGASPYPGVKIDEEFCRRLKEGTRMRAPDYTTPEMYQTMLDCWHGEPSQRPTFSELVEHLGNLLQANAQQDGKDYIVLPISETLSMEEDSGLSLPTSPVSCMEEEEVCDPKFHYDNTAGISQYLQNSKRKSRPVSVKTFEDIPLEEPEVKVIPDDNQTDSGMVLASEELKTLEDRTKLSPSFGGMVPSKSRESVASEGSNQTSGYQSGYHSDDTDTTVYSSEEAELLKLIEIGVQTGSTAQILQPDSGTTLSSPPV

Chain of VEGFR2 on VEGFR2 overexpressing 293FT cells (P35968 20-1356): as above

B1: ramucirumab (antibody, V domains shown)
VH: EVQLVQSGGGLVKPGGSLRLSCAASGFTFSSYSMNWVRQAPGKGLEWVSSISSSSSYIYYADSVKGRFTISRDNAKNSLYLQMNSLRAEDTAVYYCARVTDAFDIWGQGTMVTVSS
VL: DIQMTQSPSSVSASIGDRVTITCRASQGIDNWLGWYQQKPGKAPKLLIYDASNLDTGVPSRFSGSGSGTYFTLTISSLQAEDFAVYFCQQAKAFPPTFGGGTKVDIK
Q: How did the “EC50 of neutralisation of HUVEC proliferation induced by human VEGF-C” value [1] turn out when B1 was run?
A: 0.0874 µg/mL

Q: What about the “EC50 of neutralisation of HUVEC proliferation induced by human VEGF-C+VEGF-D” value [1] of the same binder?
A: 0.086 µg/mL

Q: Does B1 bind [2]?
A: binds

Q: What about the Kd [3] of the same binder?
A: 45.8 pM
